In article PMC6131172, “The first crystal structure of a DNA-free nuclear receptor DNA binding domain sheds light on DNA-driven allostery in the glucocorticoid receptor” (Scientific Reports, 2018):

Target: the molecule itself
Assay: crystal structure; hanging drop vapor diffusion at 18 °C; 25% PEG3350, 50 mM Tris pH8.5, 200 mM di-sodium tartrate; no reducing agents present; space group P1, eight molecules in the asymmetric unit

B1: glucocorticoid receptor (GR) DNA binding domain (DBD), residues 418–517 (domain or fragment, UniProt P04150 418-517, looked up)
chain: PKLCLVCSDEASGCHYGVLTCGSCKVFFKRAVEGQHNYLCAGRNDCIIDKIRRKNCPACRYRKCLQAGMNLEARKTKKKIKGIQQATTGVSQETSENPGN
notes: In the crystal two molecules are linked by a disulfide bridge via Cys431 (no reducing agents during crystallization); Each molecule holds two Zn2+; Mixed with a 35 nt RNA hairpin before crystallization, but no nucleic acid was found in the crystal; also called GR DBD; free GR DBD; not shown: His6-Sumo, N-terminal, cleaved
B1: binds.
